# Data taken from the supplement of paper PMC9112550, “Optimization of the antimicrobial peptide Bac7 by deep mutational scanning” (BMC Biology, 2022).
# Test system: Escherichia coli TOP10
# Test: shrunken log2 fold change of peptide-encoding DNA abundance (4.5 h post-induction vs induction); higher = less antimicrobial activity (less host growth inhibition)
# Details: time post-induction: 4.5 h; library: site-saturation at positions 5, 18, 19, 20
# 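Note: peptides expressed intracellularly from a pBAD plasmid library in pooled LB shake-flask culture, induced with 0.3% L-arabinose, DNA abundance read by NGS, three biological replicates, DESeq2 with apeglm shrinkage.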
row,Sequence,shrunken log2 fold change
1,RRIRDRPPRLPRPRPRPWCCPRP,0.0175
2,RRIRYRPPRLPRPRPRPFSCPRP,-0.0516
3,RRIRFRPPRLPRPRPRPNCMPRP,-0.143
4,RRIRLRPPRLPRPRPRPWFNPRP,-0.388
5,RRIRNRPPRLPRPRPRPACKPRP,0.169
6,RRIRDRPPRLPRPRPRPDQNPRP,-0.0888
7,RRIRFRPPRLPRPRPRPLQCPRP,-0.293
8,RRIRWRPPRLPRPRPRPGTSPRP,0.304
9,RRIRVRPPRLPRPRPRPGRQPRP,0.0976
10,RRIRKRPPRLPRPRPRPCACPRP,0.0293
11,RRIRNRPPRLPRPRPRPAPGPRP,0.164
12,RRIRGRPPRLPRPRPRPKYSPRP,-0.156
13,RRIRIRPPRLPRPRPRPADTPRP,-0.347
14,RRIRARPPRLPRPRPRPHCGPRP,0.507
15,RRIRSRPPRLPRPRPRPNHSPRP,-0.736
16,RRIRERPPRLPRPRPRPRYIPRP,-0.208
17,RRIRIRPPRLPRPRPRPFRKPRP,-0.169
18,RRIRQRPPRLPRPRPRPVTVPRP,0.153
19,RRIRVRPPRLPRPRPRPTNNPRP,-0.398
20,RRIRARPPRLPRPRPRPGWDPRP,0.811
21,RRIRPRPPRLPRPRPRPWTEPRP,-0.204
22,RRIRSRPPRLPRPRPRPMTVPRP,-0.0124

row,Sequence,shrunken log2 fold change
1,RRIRYRPPRLPRPRPRPPMEPRP,0.0358
2,RRIRTRPPRLPRPRPRPNQQPRP,0.00192
3,RRIRIRPPRLPRPRPRPAKFPRP,-0.158
4,RRIRKRPPRLPRPRPRPMHPPRP,0.19
5,RRIRPRPPRLPRPRPRPLGEPRP,-0.155
6,RRIRLRPPRLPRPRPRPARQPRP,0.281
7,RRIRQRPPRLPRPRPRPNVKPRP,0.0117
8,RRIRLRPPRLPRPRPRPFHYPRP,-0.211
9,RRIRVRPPRLPRPRPRPCMCPRP,0.00286
10,RRIRARPPRLPRPRPRPMPHPRP,0.145
11,RRIRWRPPRLPRPRPRPPNDPRP,0.0849
12,RRIRIRPPRLPRPRPRPYSSPRP,-0.239
13,RRIRFRPPRLPRPRPRPMHCPRP,-0.253
14,RRIRCRPPRLPRPRPRPCQYPRP,0.0234
15,RRIRMRPPRLPRPRPRPGADPRP,2.39
16,RRIRMRPPRLPRPRPRPNCDPRP,0.194
17,RRIRMRPPRLPRPRPRPQRLPRP,0.294
18,RRIRIRPPRLPRPRPRPNTGPRP,-0.663
19,RRIRNRPPRLPRPRPRPAAGPRP,0.698
20,RRIRIRPPRLPRPRPRPARDPRP,-0.169
21,RRIRGRPPRLPRPRPRPMIKPRP,2.22
22,RRIRNRPPRLPRPRPRPSDDPRP,-0.0915

row,Sequence,shrunken log2 fold change
1,RRIRQRPPRLPRPRPRPPWRPRP,0.619
2,RRIRKRPPRLPRPRPRPFEFPRP,0.0169
3,RRIRVRPPRLPRPRPRPAMKPRP,-0.187
4,RRIRKRPPRLPRPRPRPDCDPRP,0.095
5,RRIRDRPPRLPRPRPRPCFTPRP,0.0373
6,RRIRMRPPRLPRPRPRPVIAPRP,0.125
7,RRIRSRPPRLPRPRPRPKFKPRP,-0.121
8,RRIRMRPPRLPRPRPRPHTHPRP,-0.00443
9,RRIRTRPPRLPRPRPRPYMGPRP,-1.93
10,RRIRTRPPRLPRPRPRPQGFPRP,0.0424
11,RRIRARPPRLPRPRPRPQWRPRP,0.218
12,RRIRDRPPRLPRPRPRPFKCPRP,0.0039
13,RRIRCRPPRLPRPRPRPTIWPRP,0.105
14,RRIRIRPPRLPRPRPRPLDWPRP,-0.418
15,RRIRPRPPRLPRPRPRPAWLPRP,0.513
16,RRIRYRPPRLPRPRPRPYSEPRP,-0.199
17,RRIRQRPPRLPRPRPRPPQFPRP,0.076
18,RRIRKRPPRLPRPRPRPHCWPRP,0.17
19,RRIRSRPPRLPRPRPRPVFRPRP,-0.113
20,RRIRERPPRLPRPRPRPIMHPRP,-0.462
21,RRIRARPPRLPRPRPRPDFAPRP,0.533
22,RRIRDRPPRLPRPRPRPESAPRP,0.345

row,Sequence,shrunken log2 fold change
1,RRIRFRPPRLPRPRPRPTVAPRP,0.226
2,RRIRDRPPRLPRPRPRPLCFPRP,0.0676
3,RRIRRRPPRLPRPRPRPHMGPRP,-0.15
4,RRIRYRPPRLPRPRPRPACCPRP,-0.405
5,RRIRYRPPRLPRPRPRPTHPPRP,-0.311
6,RRIRSRPPRLPRPRPRPRYPPRP,-0.036
7,RRIRVRPPRLPRPRPRPSIHPRP,-0.755
8,RRIRRRPPRLPRPRPRPSNPPRP,-0.203
9,RRIRARPPRLPRPRPRPPANPRP,3.4
10,RRIRIRPPRLPRPRPRPSRHPRP,-0.384
11,RRIRARPPRLPRPRPRPMLRPRP,0.155
12,RRIRFRPPRLPRPRPRPLNSPRP,-0.377
13,RRIRLRPPRLPRPRPRPQSCPRP,0.123
14,RRIRQRPPRLPRPRPRPTNVPRP,-0.302
15,RRIRQRPPRLPRPRPRPYSQPRP,-0.195
16,RRIRLRPPRLPRPRPRPPVIPRP,-0.0477
17,RRIRQRPPRLPRPRPRPWDGPRP,0.199
18,RRIRERPPRLPRPRPRPLCSPRP,-0.512
19,RRIRPRPPRLPRPRPRPRFSPRP,-0.0121
20,RRIRYRPPRLPRPRPRPAWIPRP,-0.259
21,RRIRNRPPRLPRPRPRPKVPPRP,-0.129
22,RRIRGRPPRLPRPRPRPKGTPRP,0.294

row,Sequence,shrunken log2 fold change
1,RRIRKRPPRLPRPRPRPGKKPRP,-0.0204
2,RRIRIRPPRLPRPRPRPSGVPRP,-0.666
3,RRIRFRPPRLPRPRPRPAGWPRP,0.674
4,RRIRKRPPRLPRPRPRPEHIPRP,0.0147
5,RRIRQRPPRLPRPRPRPWCEPRP,-0.105
6,RRIRYRPPRLPRPRPRPVHRPRP,-0.462
7,RRIRWRPPRLPRPRPRPKPNPRP,0.367
8,RRIRTRPPRLPRPRPRPVKFPRP,-0.0819
9,RRIRLRPPRLPRPRPRPREKPRP,0.15
10,RRIRERPPRLPRPRPRPLHQPRP,-0.0505
11,RRIRQRPPRLPRPRPRPFAWPRP,-0.0355
12,RRIRSRPPRLPRPRPRPYVYPRP,-0.852
13,RRIRGRPPRLPRPRPRPNGAPRP,0.827
14,RRIRVRPPRLPRPRPRPLSVPRP,-0.0714
15,RRIRTRPPRLPRPRPRPQQMPRP,-0.0941
16,RRIRNRPPRLPRPRPRPWAYPRP,-0.0322
17,RRIRHRPPRLPRPRPRPVTKPRP,-0.055
18,RRIRLRPPRLPRPRPRPFWCPRP,-0.0123
19,RRIRERPPRLPRPRPRPANIPRP,-0.465
20,RRIRFRPPRLPRPRPRPKMQPRP,-0.0373
21,RRIRMRPPRLPRPRPRPPNSPRP,0.128
